Values joined by “and” are separate entries in the source; they are usually repeats but may differ in a detail not shown here. Equal values may be shown once. Read-outs that look alike come from different tables or passages of the source.
How the values were obtained:
PP1_7-330 [1] = biological target: T1, PP1_7-330 (Homo sapiens, UniProt P62136); settings: SD, n = 3
T1 construct: gene PPP1CA; His6-PP1α7-330, E. coli expressed, Mn2+ loaded

PP1_7-330 [2] = biological target: T1, PP1_7-330
Protocol: SPR measurements were performed using a 4-channel Reichert 4SPR instrument fitted with autosampler and a degassing pump (Reichert Technologies). SPR buffers containing 20 mM Tris pH 8.0, 500 mM NaCl, 1 mM MnCl2, 0.5 mM TCEP, 0.05% Tween-20 were prepared, sterile filtered, and degassed in autoclaved glassware prior to each experiment. Running buffer was used to prime and run both the sample and syringe pump reservoirs. Gold sensorchips modified with Ni-NTA-functionalized polycarboxylate (NiH[…]; XanTec Bioanalytics GmbH) were installed and equilibrated under flow conditions (100 μL/min) for ≥60 min at 25 °C. Surface contaminants were cleared from the chip surface by a pair of 120 μL injections of 2 M NaCl and 10 mM NaOH during the equilibration step. […] The sensorchip was allowed to equilibrate for 5 min at 50 μL/min prior to initiation of experiments. The concentrations of I3_1-126 and its variants ([…] and […]3_79-91) were measured using AccuOrange^TM Protein Quantification Kit (Biotium). For measurements, I3_1-126 and its variants were diluted into running buffer from concentrated stocks, and a series of injections at different I3 concentrations were applied. […] For all experiments, buffer blank injections were included at an interval of two sample injections to achieve double referencing. Technical replicates were obtained by utilizing three channels per chip coupled with stripping of the sensorchip with 350 mM EDTA pH 8.0, reconditioning the surface with 10 mM NaOH to remove non-specifically bound PP1 aggregates, charging the surface with 10 mM NiSO4, and reloading fresh PP1 onto the surface. All replicates were generated with freshly diluted PP1 and I3. Kinetic parameters were determined by curve-fitting using TraceDrawer software (Ridgeview Instruments AB) fit with a one-to-one one state or one-to-one two state model. Statistical analyses of SPR data were performed using Microsoft Excel.

His6-PP1α_(7-330) [3] = biological target: T2, His6-PP1α_(7-330) (UniProt P62136 7-330); assay: SPR; His6-PP1 captured on a Ni-NTA sensorchip (NiHC200M), I3 variants injected; 25 °C; 20 mM Tris pH 8.0, 500 mM NaCl, 1 mM MnCl2, 0.5 mM TCEP, 0.05% Tween-20; one-to-one one state or one-to-one two state model; settings: both partners purified
T2 construct: Protein Phosphatase 1 alpha (PP1α), residues 7-330; Captured by its His6 tag on the Ni-NTA chip for SPR; Two Mn2+ at the active site when made in E. coli with MnCl2; also called PP1_(7-330); Protein Phosphatase 1; source: bacterial expression (E. coli) as previously described, purified (Ni-NTA, SEC)
T2 sequence (P62136 7-330): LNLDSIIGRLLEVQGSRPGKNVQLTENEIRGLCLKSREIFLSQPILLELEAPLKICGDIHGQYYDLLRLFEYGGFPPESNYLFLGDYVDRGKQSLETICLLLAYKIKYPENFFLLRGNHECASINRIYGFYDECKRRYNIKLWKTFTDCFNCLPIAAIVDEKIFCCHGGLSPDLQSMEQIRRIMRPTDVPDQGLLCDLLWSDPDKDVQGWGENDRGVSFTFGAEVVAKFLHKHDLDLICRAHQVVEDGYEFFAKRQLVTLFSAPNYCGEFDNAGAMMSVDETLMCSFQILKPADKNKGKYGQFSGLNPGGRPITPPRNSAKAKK

PP1α_(7-330) = biological target: T3, PP1α_(7-330) (UniProt P62136 7-330); assay: SPR; His6-PP1 captured on Ni-NTA chip (NiHC200M), I3 variants injected; 25 °C; 20 mM Tris pH 8.0, 500 mM NaCl, 1 mM MnCl2, 0.5 mM TCEP, 0.05% Tween-20; one-to-one one state or one-to-one two state model (TraceDrawer); settings: both partners purified
T3 construct: Protein Phosphatase 1 alpha (PP1α), residues 7-330; His6-PP1 was captured on the Ni-NTA sensor chip as the SPR ligand; Mn2+ in all buffers; also called Protein Phosphatase 1; His6-PP1; source: E. coli, purified (Ni-NTA, SEC)
T3 sequence (P62136 7-330): as above

His6-PP1α_(7-330) [4] = biological target: T2, His6-PP1α_(7-330); assay: cell-based or functional assay

T1 sequence (P62136 7-330): as above

Molecule	Kd (His6-PP1α_(7-330) [3])	Kd (PP1α_(7-330))	also measured
human Inhibitor-3 (PPP1R11) full length, residues 1-126 [I3_1-126]	–	–	IC50 (PP1_7-330 [1]): 71 ± 6 nM; Kd (PP1_7-330 [2]; n = 3): 15.7 ± 2 nM
I3 1-126 T29A/I30A/K31A [SILKdead: I3_1-126 T29A/I30A/K31A]	–	–	Kd (PP1_7-330 [2]; n = 3): 13.1 ± 2.8 nM
I3 1-126 with KVEW 40-43 mutated to KAEA [RVxFdead: I3_1-126 ^40KAEA^43]	–	–	Kd (PP1_7-330 [2]; n = 4): 3460 ± 531 nM
I3 1-126 C60S/C61S/C62S [SSS: I3_1-126 C60S/C61S/C62S]	–	–	Kd (PP1_7-330 [2]; n = 3): 300 ± 23 nM
SLAAALRKRKPEKKVEWTSDTVDNEHMGRRSSKCCCIYEKPR (domain or fragment, human, UniProt O60927 27-68, looked up, PPP1R11), human, residues 27-68; also called I3_(27-68) 29AAA31; source: E. coli BL21 (DE3), purified (Ni-NTA, TEV, heat 95 °C, SEC); not shown: His6, N-terminal, cleaved; MBP, N-terminal, cleaved)	16.8 ± 2.8 nM	–	–
SLAAALRKRKPEKKVEWTSDTVDNEHMGRRSSKCCCIYEKPR (domain or fragment, human, UniProt O60927 27-68, looked up, PPP1R11), human, residues 27-68, T29A/I30A/K31A; also called I3_27-68_SLAAA; I3_(27-68) 29AAA31; source: E. coli BL21 (DE3), purified (Ni-NTA, TEV cleavage, heat, SEC); not shown: His6, N-terminal, cleaved; MBP, N-terminal, cleaved)	–	13.5 nM and 18.2 nM and 18.6 nM	–
EKKVEWTSDTVDNEHMGRRSSKCCCIYEKPR (domain or fragment, human, UniProt O60927 38-68, looked up, PPP1R11), human, residues 38-68; source: E. coli BL21 (DE3), purified (Ni-NTA, TEV, heat 95 °C, SEC); not shown: His6, N-terminal, cleaved; MBP, N-terminal, cleaved)	15.2 ± 2.5 nM	–	–
EKKVEWTSDTVDNEHMGRRSSKCCCIYEKPR (domain or fragment, human, UniProt O60927 38-68, looked up, PPP1R11), human, residues 38-68; also called SILKdead: I338-68 (Δ27-37); source: E. coli BL21 (DE3), purified (Ni-NTA, TEV cleavage, heat, SEC); not shown: His6, N-terminal, cleaved; MBP, N-terminal, cleaved)	–	14.8 nM and 17.9 nM and 13 nM	–
Inhibitor-3 I3_(1-126) (full-length) (natural protein, human, UniProt O60927 1-126, looked up, PPP1R11), human, 126 aa, residues 1-126; Uniformly 15N-labelled in the NMR experiment, unlabelled in SPR; also called PPP1R11; YPI1; source: E. coli BL21 (DE3), purified (Ni-NTA, TEV, heat 95 °C, SEC); not shown: His6, N-terminal, cleaved; MBP, N-terminal, cleaved) MAEAGAGLSETVTETTVTVTTEPENRSLTIKLRKRKPEKKVEWTSDTVDNEHMGRRSSKCCCIYEKPRAFGESSTESDEEEEEGCGHTHCVRGHRKGRRRATLGPTPTTPPQPPDPSQPPPGPMQH	15.7 ± 2 nM	–	IC50 of PP1 inhibition (dephosphorylation of the H3pT3 peptide, released Pi) (His6-PP1α_(7-330) [4]): 71 nM
I3_(1-126) (FL, full-length) (natural protein, human, UniProt O60927 1-126, looked up, PPP1R11), human, 126 aa, residues 1-126; also called PPP1R11; source: E. coli BL21 (DE3), purified (Ni-NTA, TEV cleavage, heat, SEC); not shown: His6, N-terminal, cleaved; MBP, N-terminal, cleaved) MAEAGAGLSETVTETTVTVTTEPENRSLTIKLRKRKPEKKVEWTSDTVDNEHMGRRSSKCCCIYEKPRAFGESSTESDEEEEEGCGHTHCVRGHRKGRRRATLGPTPTTPPQPPDPSQPPPGPMQH	–	17.7 nM and 13.7 nM and 15.6 nM	–
SILK_(dead): I3_(1-126) T29A/I30A/K31A (natural protein, human, UniProt O60927 1-126, looked up, PPP1R11), human, residues 1-126, T29A/I30A/K31A; also called I3_1-126_SLAAA; I3_(1-126) 29AAA31; source: E. coli BL21 (DE3), purified (Ni-NTA, TEV cleavage, heat, SEC); not shown: His6, N-terminal, cleaved; MBP, N-terminal, cleaved) MAEAGAGLSETVTETTVTVTTEPENRSLAAALRKRKPEKKVEWTSDTVDNEHMGRRSSKCCCIYEKPRAFGESSTESDEEEEEGCGHTHCVRGHRKGRRRATLGPTPTTPPQPPDPSQPPPGPMQH	–	16.3 nM and 11.9 nM and 11.2 nM	–
RVxF_(dead): I3_(1-126) 40KAEA43 (natural protein, human, UniProt O60927 1-126, looked up, PPP1R11), human, residues 1-126; Uniformly 15N-labelled in the NMR experiment, unlabelled in SPR; also called I3_(RAXA) variant; I3 RVxF_(dead); source: E. coli BL21 (DE3), purified (Ni-NTA, TEV, heat 95 °C, SEC); not shown: His6, N-terminal, cleaved; MBP, N-terminal, cleaved) MAEAGAGLSETVTETTVTVTTEPENRSLTIKLRKRKPEKKAEATSDTVDNEHMGRRSSKCCCIYEKPRAFGESSTESDEEEEEGCGHTHCVRGHRKGRRRATLGPTPTTPPQPPDPSQPPPGPMQH	3460 ± 531 nM	–	–
SSS: I3_(1-126) C60S/C61S/C62S (natural protein, human, UniProt O60927 1-126, looked up, PPP1R11), human, residues 1-126; also called I3_(1-126)SSS; source: E. coli BL21 (DE3), purified (Ni-NTA, TEV, heat 95 °C, SEC); not shown: His6, N-terminal, cleaved; MBP, N-terminal, cleaved) MAEAGAGLSETVTETTVTVTTEPENRSLTIKLRKRKPEKKVEWTSDTVDNEHMGRRSSKSSSIYEKPRAFGESSTESDEEEEEGCGHTHCVRGHRKGRRRATLGPTPTTPPQPPDPSQPPPGPMQH	300 ± 23 nM	–	–
SILK_(dead): I3_(1-126) T29A/I30A/K31A (natural protein, human, UniProt O60927 1-126, looked up, PPP1R11), human, residues 1-126; also called I3_(1-126) 29AAA31; source: E. coli BL21 (DE3), purified (Ni-NTA, TEV, heat 95 °C, SEC); not shown: His6, N-terminal, cleaved; MBP, N-terminal, cleaved) MAEAGAGLSETVTETTVTVTTEPENRSLAAALRKRKPEKKVEWTSDTVDNEHMGRRSSKCCCIYEKPRAFGESSTESDEEEEEGCGHTHCVRGHRKGRRRATLGPTPTTPPQPPDPSQPPPGPMQH	13.1 ± 2.8 nM	–	–
RVxF_(dead): I3_(1-126) 40KAEA43 (natural protein, human, UniProt O60927 1-126, looked up, PPP1R11), human, residues 1-126, 40KVEW43 mutated to 40KAEA43; also called I3_1-126_KAEA; I3_(RAXA); source: E. coli BL21 (DE3), purified (Ni-NTA, TEV cleavage, heat, SEC); not shown: His6, N-terminal, cleaved; MBP, N-terminal, cleaved) MAEAGAGLSETVTETTVTVTTEPENRSLTIKLRKRKPEKKAEATSDTVDNEHMGRRSSKCCCIYEKPRAFGESSTESDEEEEEGCGHTHCVRGHRKGRRRATLGPTPTTPPQPPDPSQPPPGPMQH	–	3390 nM and 3260 nM and 2970 nM and 4210 nM	–
SSS: I3_(1-126) C60S/C61S/C62S (natural protein, human, UniProt O60927 1-126, looked up, PPP1R11), human, residues 1-126, C60S/C61S/C62S; also called I3_1-126_SSS; I3_(1-126)SSS; source: E. coli BL21 (DE3), purified (Ni-NTA, TEV cleavage, heat, SEC); not shown: His6, N-terminal, cleaved; MBP, N-terminal, cleaved) MAEAGAGLSETVTETTVTVTTEPENRSLTIKLRKRKPEKKVEWTSDTVDNEHMGRRSSKSSSIYEKPRAFGESSTESDEEEEEGCGHTHCVRGHRKGRRRATLGPTPTTPPQPPDPSQPPPGPMQH	–	295 nM and 330 nM and 287 nM and 304 nM	koff (PP1α_(7-330)): 0.0957 s⁻¹ and 0.103 s⁻¹ and 0.093 s⁻¹ and 0.0972 s⁻¹; kon (PP1α_(7-330)): 325000 M⁻¹ s⁻¹ and 313000 M⁻¹ s⁻¹ and 321000 M⁻¹ s⁻¹
